We go through two substances from US20170173105A1, “AUTOASSEMBLING PEPTIDES FOR THE TREATMENT OF PULMONARY LEAKAGE” (3-D MATRIX, LTD., priority 2014, published 2017).

Series [1] can be described thus: Gelation kinetics of pH adjusted peptides, time sweep with DMEM added. It is filed as physicochemical. The method, then: The effect of pH level on the properties of gelation kinetics was evaluated to identify optimized pH levels for the peptides as described herein. Fast gelation kinetics of PuraMatrix® and other peptides within body fluid may generally improve its function and response time for various clinical applications. The pH level may impart response time to begin gelation when treated with simulated body fluid including but not limited to DMEM. […] A fast response time of PuraMatrix® and other peptides within body fluid may generally improve its function and response time for various clinical applications.
Time sweep tests were performed at 1 rad/sec and at 1 Pa with 20 mm plates and 500 μm gap distance. During time sweep test of PuraMatrix® 2.5% solution, DMEM was added into the chamber surrounding the measuring plates to soak PuraMatrix® solution at 0 time point. The results are shown in FIG. 9A for PuraMatrix® 2.5% solution.
Time sweep tests were performed at 1 rad/sec and at 1 Pa with 20 mm plates and 500 μm gap distance. During time sweep test of IEIK13 1.5% solution, DMEM was added into the chamber surrounding the measuring plates to soak IEIK13 1.5% solution at 0 time point and continuously data was recorded. The results are shown in FIG. 9B for IEIK13 1.5% solution.

A short description of series [2]: Rheological measurements of RADA16 mixed with salts (stiffness, reversibility, gelation kinetics). It is filed as physicochemical. The conditions noted are these: (RADA)4 about 2.5 w/v percent; calcium chloride about 0.125 M.
For series [3], the system named is pleural defects in swine lungs. Kind of series: Burst pressure of peptide hydrogels as air sealants on pleural defects of swine lungs. The conditions noted are these: for ranking of burst pressures: 16 G pleural defects, 2.5% RADA16+0.25 M CaCl2 and 1.5% IEIK13. The text has this: Swine lungs were obtained from freshly euthanized pigs. An endotracheal tube was inserted through the trachea and primary bronchus into the lung of interest. Pressure was supplied to the lungs with the use of a manual endotracheal intubation pump. The trachea was tied off to prevent air leakage around the tube. The primary bronchus of the other lung was clamped to direct all airflow to the lung of interest. A manometer was used to measure the pressure of air directed into the lungs to induce expansion.
The self-assembling peptide hydrogels were comprised of Ac-RADARADARADARADA-NH2 (i.e. RADA16) (SEQ ID NO: 1), Ac-KLDLKLDLKLDL-NH2 (i.e. KLD12) (SEQ ID NO: 3), or Ac-IEIKIEIKIEIKI-NH2 (i.e. IEIK13) (SEQ ID NO: 2) with either RADA16 or KLD12 alone or mixed with 0.250 M calcium chloride. If alone, the peptides were reconstituted in deionized water. If, however the peptides were reconstituted with 0.250 M calcium chloride solution, the peptides were reconstituted first in deionized water, and subsequently, a 0.500 M solution of calcium chloride was mixed in at a 1:1 ratio.
The pleural defects were created using three different methods to measure the efficacy of the self-assembling peptide hydrogels: (1) A 16 gauge needle was used to puncture the lung and pleura, (2) A 5×5 mm area was measured and the lung and pleura were clipped using a pair of surgical scissors, and (3) A lobectomy (i.e. a complete resection of one lobe of the lung of interest). A 0.9% saline solution was streamed over the defect area and the location of the defect was identified by using the endotracheal intubation pump system to introduce air and observing the release of air bubbles.
Once the location of the defect was identified, the hydrogels were applied to the defect area via two different methods: (1) the hydrogel was applied topically by injecting through a syringe onto the defect area, and (2) the hydrogel was injected into the defect through an 18 gauge needle with overflow to cover the defect area topically. After a relaxation period of 2 min, pressure was applied through the endotracheal intubation pump until a burst pressure was identified. For any additional tests, airflow to the previously tested defect was cut off using a surgical clamp.

Series [4] can be described thus: Rheological comparison of peptide hydrogels mixed with Ringer's Solution or indigo carmine. Format: physicochemical. An excerpt: The two gels were: (1) a combination of the self-assembling peptide with a well-known cation/anion solution, Ringer's Solution (pH 5.3), used in the medical field and (2) a combination of the self-assembling peptide with a well-known contrast agent, indigo carmine, which is a dye solution containing sulfate (anion) and sodium (cation) ions. Indigo carmine contains indigoindisulfonate sodium (C16H8N2Na2O8S2), water, and sodium citrate […] for pH adjustment. Using indigo carmine powder, a 1% solution was prepared for use in experimentation. This corresponds to 10 mg/1 ml of water. The concentration of indigo carmine solution used in experimentation was 0.00585% in water.
Indigo carmine powder was used to prepare a 1% solution in deionized (DI) water. Using IEIK13 powder, a 2 percent solution was prepared using DI water. The amount of IEIK was weighed out and the appropriate amount of DI water was added gently down the side of the container. Mixing was accomplished by vortexing for about 30 seconds, and then sonicating for 30 seconds. The solution was then centrifuged for about 10 to about 15 minutes at […]. The solution may undergo further vortexing and centrifuging until the solution is clear and without bubbles.
To obtain a final concentration of 0.00585% indigo carmine, the necessary amount of 1% IC is added to the appropriate amount of DI water to dilute 2% IEIK to 1.5% IEIK. […]

Setting [5] is: with pH adjustment, PuraMatrix 2.5%, IEIK13 1.5% solution.

Take “Arg-Ala-Asp-Ala-Arg-Ala-Asp-Ala-Arg-Ala-Asp-Ala-Arg-Ala-Asp-Ala [PuraMatrix ®]”: in series [1] (setting [5]), the “storage modulus response after DMEM addition” value is on record as “immediate storage modulus increase”. The “initial time without storage modulus increase after DMEM addition” value in series [1] (without pH adjustment (pH 2.2), 2.5% solution) is 13 s. Besides, the storage modulus result in series [2] is listed as “about 600 Pa”. Further, the “effect of increasing exposure time on burst pressure” value in series [3] (2.5% RADA16, 16 G pleural defect, varying time points) is “increased the burst pressure”. Further, the “effect of needle gauge of pleural defect on burst pressure” value in series [3] (2.5% RADA16 applied topically, 14, 16, 18, and 22 gauge needles) was “negligible changes in burst pressures”. The “effect of topically added NaCl solution on burst pressure” value in series [3] (2.5% RADA16 topically, 16 G pleural defect, 0.154 M NaCl gently massaged in) is given as “slightly increased”. Further, in series [3], the “ranking of burst pressures” value is listed as “best burst pressures”. The “properties of tailored hydrogel” value in series [4] (mixed with Ringer's Solution (pH 5.3)) is “stiffer gel with faster gelation kinetics that maintains reversibility”.
As for “Ile-Glu-Ile-Lys-Ile-Glu-Ile-Lys-Ile-Glu-Ile-Lys-Ile [IEIK13]”, the “storage modulus response after DMEM addition” value is “immediate storage modulus increase” in series [1] (setting [5]) and “immediate storage modulus increase” in series [1] (without pH adjustment, 1.5% solution). The “ranking of burst pressures” value in series [3] was “best burst pressures”. For the same substance, in series [4] (1.5% IEIK mixed with 0.00585% indigo carmine), the “properties of tailored hydrogel” value was “maintains stiffness, reversibility, and gelation kinetics”.
